The text below walks through data of US20240174720A1.

Assay [1] addresses Purified human IgG (injectable IVIG) (human). Description: dynamic binding capacity at 10% breakthrough after 24 h in 0.5 M NaOH; ligand on agarose column; human IgG 2.5 mg/ml.
The target is the same in assay [2]. The assay can be described thus: dynamic binding capacity at 10% breakthrough; ligand on agarose in 1 ml column; human IgG 2.5 mg/ml; 4 min residence time.
Assay [3] has the same target. Description: DBC after 0.5 M NaOH soaking relative to DBC before soaking; agarose column; human IgG.
For assay [4] the target is unchanged. Description: dynamic binding capacity at 10% breakthrough after 35 h in 0.5 M NaOH; ligand on agarose column; human IgG 2.5 mg/ml.

As for “Z domain with N52L mutation Ig-binding affinity ligand (designed binder)”, the DBC after 24 h soaking in assay [1] is 47 mg/mL. This substance also displayed a DBC before NaOH soaking in assay [2] of 58 mg/mL. The substance further returned a Percentage of remaining DBC in assay [3] of 67.2%. Moreover, in assay [4], the DBC after 35 h soaking came to 39 mg/mL.

Consider “Z domain with N52V mutation Ig-binding affinity ligand (designed binder)”, for which, in assay [1], the DBC after 24 h soaking came to 52 mg/mL. Further, the DBC before NaOH soaking in assay [2] is 63 mg/mL. Moreover, in assay [3], the Percentage of remaining DBC came out at 65.1%. Also, in assay [4], the DBC after 35 h soaking came out at 41 mg/mL.

On to “Z domain with S41A mutation Ig-binding affinity ligand (designed binder)”, for which, in assay [1], the DBC after 24 h soaking came out at 52 mg/mL. Besides, in assay [2], the DBC before NaOH soaking is 62 mg/mL. Moreover, the Percentage of remaining DBC in assay [3] was found to be 70.9%. This substance yielded a DBC after 35 h soaking in assay [4] of 44 mg/mL.

“Z domain with S41A/N52L mutations Ig-binding affinity ligand (designed binder)” gave a DBC after 24 h soaking in assay [1] of 50 mg/mL. This substance also had a DBC before NaOH soaking in assay [2] of 59 mg/mL. In assay [3], this substance had a Percentage of remaining DBC of 71.2%. Moreover, the DBC after 35 h soaking in assay [4] was found to be 42 mg/mL.

In the case of “Z domain with S41A/N52V mutations Ig-binding affinity ligand (designed binder)”, the DBC after 24 h soaking in assay [1] amounted to 59 mg/mL. This substance also came in with a DBC before NaOH soaking in assay [2] of 65 mg/mL. In assay [3], this substance gave a Percentage of remaining DBC of 81.5%. Also, in assay [4], the DBC after 35 h soaking was 53 mg/mL.

In assay [1], “Z domain with S41V mutation Ig-binding affinity ligand (designed binder)” registered a DBC after 24 h soaking of 53 mg/mL. Besides, the DBC before NaOH soaking in assay [2] turned out to be 65 mg/mL. The same substance came in with a Percentage of remaining DBC in assay [3] of 66.1%. For the same substance, the DBC after 35 h soaking in assay [4] was 43 mg/mL.

“Z domain with S41V/N52V mutations Ig-binding affinity ligand (designed binder)” showed a DBC after 24 h soaking in assay [1] of 56 mg/mL. In addition, the DBC before NaOH soaking in assay [2] came to 64 mg/mL. The substance further had a Percentage of remaining DBC in assay [3] of 76.5%. This substance had a DBC after 35 h soaking in assay [4] of 49 mg/mL.
